Consider six molecules from patent US20210380680A1 (ZLLP, published 2021).

For assay [1], the target named is T1, human Claudin 18.2 (CLDN18.2) (human, UniProt P56856-2 1-261). The experiment in a line: cell-based or functional assay.
Assay [2] addresses T1, human Claudin 18.2 (CLDN18.2). The experiment in a line: cell-based or functional assay. The source holds these as a separate data set.
The target is the same in assay [3]. The experiment in a line: cell-based or functional assay. The source holds these as a separate data set.
The target is the same in assay [4]. The experiment in a line: cell-based or functional assay. This is another data set of the same source.
For assay [5] the target is unchanged. Briefly: cell-based or functional assay. The source holds these as a separate data set.
The target is the same in assay [6]. The experiment in a line: FACS on CHO-CLDN18.2 cells.
Assay [7] shares this target. Briefly: FACS on CHO-CLDN18.2 cells. The source holds these as a separate data set.
Assay [8] has as its target T2, CLDN18.2 endogenously expressed on SNU601 gastric cancer cells (UniProt P56856-2 1-261).
T2 construct: whole, on cells
The experiment in a line: FACS on SNU601 cells.

The target of assay [9] is T1, human Claudin 18.2 (CLDN18.2). Briefly: FACS on CHO-18.2 cells @30 ug/ml.
The target of assay [10] is T3, CLDN18.2 endogenously expressed on SNU620 gastric cancer cells (UniProt P56856-2 1-261, limits assumed).
T3 construct: whole, on cells; also called SU620
The experiment in a line: FACS on SNU620 cells.

Like-named read-outs stand apart in the source and are kept apart here.

Broadly, the EC50 is the midpoint of the concentration-response curve. Low readings indicate greater potency, high ones weaker potency.

B1: 413H9F8-cp2 (antibody, V domains shown)
VH: DVQLVESGGGLVQPGGSLRLSCAASGFTFSSFGMHWVRQAPGKGLEWVAYISSGSSPIYYVDKLKGRFTISRDNAKNSLYLQMNSLRAEDTAVYYCARAGYAVRNALDYWGQGTLVTVSS
VL: EIVMTQSPPTLSLSPGERVTLSCKSSQSLLNVGNQKNYLAWYQQKPGQAPRLLIYGASTRESGIPARFSGSGSGTDFTLTISSLQPEDFAVYYCQNDLFYPLTFGGGTKVEIK
notes: humanized IgG; constant regions not specified
Consider B1, for which the “ADCC EC50, NUGC4-CLDN18.2, PBMC” value in assay [1] stood at 0.0492 nM. For the same molecule, the “ADCC EC50, CHO-CLDN18.2, FcR-TANK” value in assay [2] was 0.008 nM. The “CDC EC50, human serum, CHO-CLDN18.2” value in assay [3] was found to be 1.13 nM. Besides, in assay [4], the “% specific cytotoxicity @ 6.67 nM, NUGC4-CLDN18.2, PBMC” value is 32% and the “ADCC EC50, NUGC4-CLDN18.2, PBMC” value amounted to 5.3 nM. Also, in [5], the “% ADCC @ 6.67 nM, NCI-N87-CLDN18.2, FcR-TANK” value worked out at 13.2% and the “ADCC EC50, NCI-N87-CLDN18.2, FcR-TANK” value turned out to be 0.24 nM. Moreover, in assay [6], the concentration giving a half-maximal response (EC50) came to 1.99 nM.

B2: 413H9F8-cp2-MG-DL (antibody, V domains shown)
VH: B1 VH
VL: B1 VL
With B2, the “ADCC EC50, NUGC4-CLDN18.2, PBMC” value in assay [1] came out at 0.0175 nM. In addition, the “ADCC EC50, CHO-CLDN18.2, FcR-TANK” value in assay [2] was determined as 0.0024 nM.

B3: 413H9F8-cp2-V2-DL (antibody, V domains shown)
VH: B1 VH
VL: B1 VL
Regarding B3, the “ADCC EC50, NUGC4-CLDN18.2, PBMC” value in assay [1] came out at 0.0146 nM. For the same molecule, the “ADCC EC50, CHO-CLDN18.2, FcR-TANK” value in assay [2] amounted to 0.001 nM.

B4: chimeric 282A12F3 (xi282A12F3) (antibody, human IgG1, kappa, V domains shown)
VH: QVQLKESGPVLVQPSQTLSLTCTVAGFSLTSYNVYWVRQPPGKGLEWMGVIWNTGATRYNSTLKSRLSISKDTSKSQVFLKMNSLQTEDTATYYCARDSAMPAIPFAYWGQGTLVTVSS
VL: DIVMTQSPSSLAVSAGETVTINCKSSQSLFGSVRQKNYLAWYQQKPGQSPKLLIYLASTRESGVPDRFIGSGSGTDFTLTISSVQAEDLAKYYCQQYYDIPWTFGGGTKLELKR
notes: chimeric human IgG1
For B4, in [7], the binding result is reported as “binds”.

B5: 282A12F3 (rat hybridoma antibody) (antibody, V domains shown)
VH: B4 VH
VL: DIVMTQSPSSLAVSAGETVTINCKSSQSLFGSVRQKNYLAWYQQKPGQSPKLLIYLASTRESGVPDRFIGSGSGTDFTLTISSVQAEDLAKYYCQQYYDIPWTFGGGTKLELK
notes: purified rat IgG from hybridoma
Consider B5, for which the binding result in [8] and in [9] was “binds” throughout.

B6: chimeric 357B8F8 (antibody, human IgG1, kappa, V domains shown)
VH: QVQLKESGPGLVAPSQSLSITCTVSGFSLTSYGVHWVRQPPGKGLEWLGVIWPGGNTNYNSALMSRLSISKDNSKSQVFLKMNSLQTDDTAMYYCARDRRLAMDYWGQGTSVTVSS
VL: DIVMTQSPSSLTVTAGEKVTMTCKSSQSLLNSGNQKNYLTWYQQKPGQPPKLLIYWASTRESGVPDRFTGSGSGTDFTLTISILQAEDLAVYYCQNDYSYPFTFGSGTKLEIKR
notes: chimeric human IgG1
Take B6: the binding result in assay [10] is given as “no binding”.
